# Publication PMC11566999
# T1: YTH-YPet (UniProt Q9Y5A9 380-579)
# T1 sequence: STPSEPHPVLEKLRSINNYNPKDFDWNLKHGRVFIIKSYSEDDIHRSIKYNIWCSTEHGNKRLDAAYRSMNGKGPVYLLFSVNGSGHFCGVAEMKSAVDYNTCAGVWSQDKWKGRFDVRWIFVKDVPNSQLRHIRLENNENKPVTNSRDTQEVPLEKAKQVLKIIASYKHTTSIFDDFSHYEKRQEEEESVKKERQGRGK
# Target: T1, YTH-YPet
# Assay: EMSA
binder,measurement,value
CCGGACUGUACAUGAGGAUCACCCAUGU (structured_RNA) [aRNA],binding result,no binding
